The values below come from publication PMC7181197.

Series [1] concerns the target GFP-G3BP1(WT);mCherry-Caprin-1 (human?;human?, UniProt Q13283;Q14444 1-466;1-709, |). Briefly: EMSA.
For series [2], the target named is T1, GFP-G3BP1(WT) (UniProt Q13283 1-466). The series is described as follows: EMSA. Background: A gel shift assay detects complexes by their altered migration in electrophoresis.
Series [3] deals with GFP-G3BP1(S149A) (UniProt Q13283 1-466, S149A). The series is described as follows: EMSA.
The target of series [4] is T1, GFP-G3BP1(WT). The series is described as follows: analytical size exclusion chromatography. For orientation: SEC sorts molecules by how far they enter the pores of the column.

T1 sequence (Q13283 whole entry): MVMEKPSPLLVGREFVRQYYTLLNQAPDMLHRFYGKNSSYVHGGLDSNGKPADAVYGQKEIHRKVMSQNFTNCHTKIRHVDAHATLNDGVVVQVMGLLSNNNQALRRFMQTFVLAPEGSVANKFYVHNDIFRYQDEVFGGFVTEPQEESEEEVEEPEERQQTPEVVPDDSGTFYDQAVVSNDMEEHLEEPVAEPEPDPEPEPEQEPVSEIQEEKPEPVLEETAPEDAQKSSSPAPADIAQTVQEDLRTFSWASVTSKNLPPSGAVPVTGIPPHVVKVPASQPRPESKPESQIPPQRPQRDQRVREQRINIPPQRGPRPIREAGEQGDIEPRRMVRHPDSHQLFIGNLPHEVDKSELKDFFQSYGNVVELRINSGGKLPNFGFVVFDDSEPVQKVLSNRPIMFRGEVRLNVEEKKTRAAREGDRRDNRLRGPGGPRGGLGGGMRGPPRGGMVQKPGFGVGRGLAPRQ
GFP-G3BP1(WT);mCherry-Caprin-1, sequence (Q13283 whole entry, chain 1 of 2): as the sequence (Q13283 whole entry) above
GFP-G3BP1(WT);mCherry-Caprin-1, sequence (Q14444 whole entry, chain 2 of 2): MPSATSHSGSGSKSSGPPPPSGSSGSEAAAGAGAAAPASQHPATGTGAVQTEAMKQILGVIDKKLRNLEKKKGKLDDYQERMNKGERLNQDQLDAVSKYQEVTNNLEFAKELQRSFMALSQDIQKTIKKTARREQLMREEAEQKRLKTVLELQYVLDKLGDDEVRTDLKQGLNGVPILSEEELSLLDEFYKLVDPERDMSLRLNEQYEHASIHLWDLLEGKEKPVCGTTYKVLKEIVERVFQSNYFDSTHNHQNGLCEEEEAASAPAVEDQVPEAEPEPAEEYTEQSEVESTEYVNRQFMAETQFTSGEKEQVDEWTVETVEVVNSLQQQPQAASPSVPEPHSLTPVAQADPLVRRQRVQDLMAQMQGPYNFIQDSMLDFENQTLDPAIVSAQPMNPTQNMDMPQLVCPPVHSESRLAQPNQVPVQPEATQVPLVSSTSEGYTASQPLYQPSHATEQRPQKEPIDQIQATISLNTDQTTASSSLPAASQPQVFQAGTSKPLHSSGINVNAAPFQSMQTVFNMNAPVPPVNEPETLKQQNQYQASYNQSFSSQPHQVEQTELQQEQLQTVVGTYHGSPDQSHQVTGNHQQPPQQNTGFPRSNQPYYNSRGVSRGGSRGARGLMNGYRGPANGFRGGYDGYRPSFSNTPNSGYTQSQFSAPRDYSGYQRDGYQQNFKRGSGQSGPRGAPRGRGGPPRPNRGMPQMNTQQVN
GFP-G3BP1(S149A), sequence (Q13283 whole entry S149A): as the sequence (Q13283 whole entry) above, with S149A counted along it

B1: A(60)-Cy5 RNA (ssRNA)
RNA: AAAAAAAAAAAAAAAAAAAAAAAAAAAAAAAAAAAAAAAAAAAAAAAAAAAAAAAAAAAA
modifications: 3' pCp-Cy5 ligated (adds one 3' C)
Regarding B1, in series [1], the binding result is recorded as “binds”. Further, the values for the Kd in series [2] and in series [3] were ~2000 nM and ~1900 nM, respectively.

B2: A(60) RNA unlabeled (ssRNA)
RNA: B1 RNA
As for B2, in series [4], the binding result is “binds”.

Usually Kd stands for a measure of binding affinity in units of concentration. Low readings indicate a tighter complex, high ones a looser complex.
